Measurements: patent EP4566619A1 (AvenCell Therapeutics Inc., dated 2025)

T1: CD19 (UniProt P15391 20-556)
T1 construct: whole, on cells; also called CD19 on OCI-AML3-CD19 cells; Oci-AML-CD19
T1 sequence (looked up): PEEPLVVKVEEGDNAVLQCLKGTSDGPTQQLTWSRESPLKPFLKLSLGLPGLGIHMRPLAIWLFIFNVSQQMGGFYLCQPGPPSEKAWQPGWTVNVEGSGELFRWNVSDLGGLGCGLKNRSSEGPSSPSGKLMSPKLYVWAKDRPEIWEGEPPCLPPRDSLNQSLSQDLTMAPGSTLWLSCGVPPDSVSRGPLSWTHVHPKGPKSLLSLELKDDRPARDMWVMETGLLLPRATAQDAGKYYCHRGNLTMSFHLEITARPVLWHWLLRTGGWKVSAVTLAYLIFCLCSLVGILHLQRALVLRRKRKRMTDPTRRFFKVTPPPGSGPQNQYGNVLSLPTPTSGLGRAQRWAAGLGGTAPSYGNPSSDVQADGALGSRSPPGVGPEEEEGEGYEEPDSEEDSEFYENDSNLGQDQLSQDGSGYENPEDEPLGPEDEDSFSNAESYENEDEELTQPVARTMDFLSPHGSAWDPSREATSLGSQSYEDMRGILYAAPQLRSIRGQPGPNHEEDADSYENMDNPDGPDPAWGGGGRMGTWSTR

T2: CD20 (UniProt P11836 1-297)
T2 construct: whole, on cells; also called CD20 on OCI-AML3-CD20 cells; Oci-AML-CD20
T2 sequence (looked up): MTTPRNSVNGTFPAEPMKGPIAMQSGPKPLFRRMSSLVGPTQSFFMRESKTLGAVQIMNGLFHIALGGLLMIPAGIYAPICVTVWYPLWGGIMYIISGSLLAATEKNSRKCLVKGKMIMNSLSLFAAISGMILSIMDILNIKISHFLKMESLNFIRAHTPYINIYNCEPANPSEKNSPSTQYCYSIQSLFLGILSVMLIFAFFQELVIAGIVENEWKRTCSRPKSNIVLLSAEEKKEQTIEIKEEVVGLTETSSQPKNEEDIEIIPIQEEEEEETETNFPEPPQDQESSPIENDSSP


How the values were obtained:
CD19 [1] = molecular target: T1, CD19; test: cellular binding assay, flow cytometry (gMFI) on OCI-AML3-CD19 cells
CD20 [2] = molecular target: T2, CD20; test: cellular binding assay, flow cytometry (gMFI) on OCI-AML3-CD20 cells
CD19 [3] = molecular target: T1, CD19; test: cell-based or functional assay
CD20 [4] = molecular target: T2, CD20; test: cell-based or functional assay

Binder | EC50 (CD19 [1]) | EC50 (CD20 [2]) | CD19 killing EC50 [pM] (CD19 [3]) | CD20 killing EC50 [pM] (CD20 [4])
R-TM-19/20_2 (other, also called R-TM 19/20_02) chain 1: not shown chain 2: GQVQLVQSGAEVKKPGASVKVSCKASGYTFTHYYIYWVRQAPGQGLEWMGGVNPSNGGTHFNEKFKSRVTMTRDTSISTAYMELSRLRSDDTAVYYCARSEYDYGLGFAYWGQGTLVTVSSASTKGPSVFPLAPSSKSTSGGTAALGCLVKDYFPEPVTVSWNSGALTSGVHTFPAVLQSSGLYSLSSVVTVPSSSLGTQTYICNVNHKPSNTKVDKKVEPKSCDKTHTCPPCPAPPVAGPSVFLFPPKPKDTLMISRTPEVTCVVVDVSHEDPEVKFNWYVDGVEVHNAKTKPREEQYNSTYRVVSVLTVLHQDWLNGKEYKCKVSNKGLPSSIEKTISKAKGQPREPQVYTLPPSRDELTKNQVSLWCLVKGFYPSDIAVEWESNGQPENNYKTTPPVLDSDGSFFLYSKLTVDKSRWQQGNVFSCSVMHEALHNHYTQKSLSLSPGK chain 3: GQVQLVESGGGLVQPGGSLRLSCAASGRTFSNYNMGWFRQAPGQGLEFVAAIDWSGGSPYYADSVKGRFTISRDNSKNTLYLQMNSLRAEDTAVYYCAAPLSYGSTWLADYWGQGTLVTVSSEPKSCDKTHTCPPCPAPPVAGPSVFLFPPKPKDTLMISRTPEVTCVVVDVSHEDPEVKFNWYVDGVEVHNAKTKPREEQYNSTYRVVSVLTVLHQDWLNGKEYKCKVSNKGLPSSIEKTISKAKGQPREPQVYTLPPSRDELTKNQVSLSCAVKGFYPSDIAVEWESNGQPENNYKTTPPVLDSDGSFFLVSKLTVDKSRWQQGNVFSCSVMHEALHNHYTQKSLSLSPGK | 18.4 nM | 43.6 nM | 3.8 pM | 7.2 pM
R-TM-19/20_15 (other, Three-chain CD19/CD20 targeting module) chain 1: not shown chain 2: GQVQLVQSGAEVKKPGASVKVSCKASGYTFTHYYIYWVRQAPGQGLEWMGGVNPSNGGTHFNEKFKSRVTMTRDTSISTAYMELSRLRSDDTAVYYCARSEYDYGLGFAYWGQGTLVTVSSASTKGPSVFPLAPSSKSTSGGTAALGCLVKDYFPEPVTVSWNSGALTSGVHTFPAVLQSSGLYSLSSVVTVPSSSLGTQTYICNVNHKPSNTKVDKKVEPKSCDKTHTCPPCPAPPVAGPSVFLFPPKPKDTLMISRTPEVTCVVVDVSHEDPEVKFNWYVDGVEVHNAKTKPREEQYNSTYRVVSVLTVLHQDWLNGKEYKCKVSNKGLPSSIEKTISKAKGQPREPQVYTLPPSRDELTKNQVSLWCLVKGFYPSDIAVEWESNGQPENNYKTTPPVLDSDGSFFLYSKLTVDKSRWQQGNVFSCSVMHEALHNHYTQKSLSLSPGK chain 3: GQVQLVESGGGLVQPGGSLRLSCAASGRTFSNYNMGWFRQAPGQGLEFVAAIDWSGGSPYYADSVKGRFTISRDNSKNTLYLQMNSLRAEDTAVYYCAAPLSYGSTWLADYWGQGTLVTVSSGGGGSGGGGSQVQLVESGGGLVQPGGSLRLSCAASGRTFSNYNMGWFRQAPGQGLEFVAAIDWSGGSPYYADSVKGRFTISRDNSKNTLYLQMNSLRAEDTAVYYCAAPLSYGSTWLADYWGQGTLVTVSSEPKSCDKTHTCPPCPAPPVAGPSVFLFPPKPKDTLMISRTPEVTCVVVDVSHEDPEVKFNWYVDGVEVHNAKTKPREEQYNSTYRVVSVLTVLHQDWLNGKEYKCKVSNKGLPSSIEKTISKAKGQPREPQVYTLPPSRDELTKNQVSLSCAVKGFYPSDIAVEWESNGQPENNYKTTPPVLDSDGSFFLVSKLTVDKSRWQQGNVFSCSVMHEALHNHYTQKSLSLSPGK | 3.7 nM | 45.5 nM | 1.2 pM | 10.7 pM
R-TM-19/20_8 (other, Three-chain CD19/CD20 targeting module; also called R-TM 19/20_08) chain 1: not shown chain 2: GQVQLVQSGAEVKKPGASVKVSCKASGYTFTHYYIYWVRQAPGQGLEWMGGVNPSNGGTHFNEKFKSRVTMTRDTSISTAYMELSRLRSDDTAVYYCARSEYDYGLGFAYWGQGTLVTVSSASTKGPSVFPLAPSSKSTSGGTAALGCLVKDYFPEPVTVSWNSGALTSGVHTFPAVLQSSGLYSLSSVVTVPSSSLGTQTYICNVNHKPSNTKVDKKVEPKSCDKTHTCPPCPAPPVAGPSVFLFPPKPKDTLMISRTPEVTCVVVDVSHEDPEVKFNWYVDGVEVHNAKTKPREEQYNSTYRVVSVLTVLHQDWLNGKEYKCKVSNKGLPSSIEKTISKAKGQPREPQVYTLPPSRDELTKNQVSLWCLVKGFYPSDIAVEWESNGQPENNYKTTPPVLDSDGSFFLYSKLTVDKSRWQQGNVFSCSVMHEALHNHYTQKSLSLSPGK chain 3: GQVQLVESGGGLVQPGGSLRLSCAASGRTFSNYNMGWFRQAPGQGLEFVAAIDWSGGSPYYADSVKGRFTISRDNSKNTLYLQMNSLRAEDTAVYYCAAPLSYGSTWLADYWGQGTLVTVSSGGGGSGGGGSGGGGSEVQLVESGGGLVQPGGSLRLSCAASGFSFSDFWMSWVRQAPGKGLEWVATISQAGSEKDYVDSVKGRFTISRDNAKKSLYLQMNSLRAEDTAVYYCASGVYSFDYRGQGTLVTVSSEPKSCDKTHTCPPCPAPPVAGPSVFLFPPKPKDTLMISRTPEVTCVVVDVSHEDPEVKFNWYVDGVEVHNAKTKPREEQYNSTYRVVSVLTVLHQDWLNGKEYKCKVSNKGLPSSIEKTISKAKGQPREPQVYTLPPSRDELTKNQVSLSCAVKGFYPSDIAVEWESNGQPENNYKTTPPVLDSDGSFFLVSKLTVDKSRWQQGNVFSCSVMHEALHNHYTQKSLSLSPGK | 14.8 nM | 37 nM | 7.1 pM | 14.2 pM
R-TM-19/20_11 (other, Three-chain CD19/CD20 targeting module) chain 1: not shown chain 2: GQVQLVQSGAEVKKPGASVKVSCKASGYTFTHYYIYWVRQAPGQGLEWMGGVNPSNGGTHFNEKFKSRVTMTRDTSISTAYMELSRLRSDDTAVYYCARSEYDYGLGFAYWGQGTLVTVSSASTKGPSVFPLAPSSKSTSGGTAALGCLVKDYFPEPVTVSWNSGALTSGVHTFPAVLQSSGLYSLSSVVTVPSSSLGTQTYICNVNHKPSNTKVDKKVEPKSCDKTHTCPPCPAPPVAGPSVFLFPPKPKDTLMISRTPEVTCVVVDVSHEDPEVKFNWYVDGVEVHNAKTKPREEQYNSTYRVVSVLTVLHQDWLNGKEYKCKVSNKGLPSSIEKTISKAKGQPREPQVYTLPPSRDELTKNQVSLWCLVKGFYPSDIAVEWESNGQPENNYKTTPPVLDSDGSFFLYSKLTVDKSRWQQGNVFSCSVMHEALHNHYTQKSLSLSPGK chain 3: EVQLVESGGGLVQPGGSLRLSCAASGFSFSDFWMSWVRQAPGKGLEWVATISQAGSEKDYVDSVKGRFTISRDNAKKSLYLQMNSLRAEDTAVYYCASGVYSFDYRGQGTLVTVSSEPKSCDKTHTCPPCPAPPVAGPSVFLFPPKPKDTLMISRTPEVTCVVVDVSHEDPEVKFNWYVDGVEVHNAKTKPREEQYNSTYRVVSVLTVLHQDWLNGKEYKCKVSNKGLPSSIEKTISKAKGQPREPQVYTLPPSRDELTKNQVSLSCAVKGFYPSDIAVEWESNGQPENNYKTTPPVLDSDGSFFLVSKLTVDKSRWQQGNVFSCSVMHEALHNHYTQKSLSLSPGKGGGGSGGGGSGGGGSQVQLVESGGGLVQPGGSLRLSCAASGRTFSNYNMGWFRQAPGQGLEFVAAIDWSGGSPYYADSVKGRFTISRDNSKNTLYLQMNSLRAEDTAVYYCAAPLSYGSTWLADYWGQGTLVTVSS | 5.2 nM | 62 nM | 3.8 pM | 17.9 pM
R-TM-19/20_3 (other, Three-chain CD19/CD20 targeting module; also called R-TM 19/20_03) chain 1: not shown chain 2: GQVQLVQSGAEVKKPGASVKVSCKASGYTFTHYYIYWVRQAPGQGLEWMGGVNPSNGGTHFNEKFKSRVTMTRDTSISTAYMELSRLRSDDTAVYYCARSEYDYGLGFAYWGQGTLVTVSSASTKGPSVFPLAPSSKSTSGGTAALGCLVKDYFPEPVTVSWNSGALTSGVHTFPAVLQSSGLYSLSSVVTVPSSSLGTQTYICNVNHKPSNTKVDKKVEPKSCDKTHTCPPCPAPPVAGPSVFLFPPKPKDTLMISRTPEVTCVVVDVSHEDPEVKFNWYVDGVEVHNAKTKPREEQYNSTYRVVSVLTVLHQDWLNGKEYKCKVSNKGLPSSIEKTISKAKGQPREPQVYTLPPSRDELTKNQVSLWCLVKGFYPSDIAVEWESNGQPENNYKTTPPVLDSDGSFFLYSKLTVDKSRWQQGNVFSCSVMHEALHNHYTQKSLSLSPGK chain 3: GQVQLVESGGGLVQPGGSLRLSCAASGRTFSNYNMGWFRQAPGQGLEFVAAIDWSGGSPYYAASVRGRFTISRDNSKNTLYLQMNSLRAEDTAVYYCAAPLSYGSTWLADYWGQGTLVTVSSEPKSCDKTHTCPPCPAPPVAGPSVFLFPPKPKDTLMISRTPEVTCVVVDVSHEDPEVKFNWYVDGVEVHNAKTKPREEQYNSTYRVVSVLTVLHQDWLNGKEYKCKVSNKGLPSSIEKTISKAKGQPREPQVYTLPPSRDELTKNQVSLSCAVKGFYPSDIAVEWESNGQPENNYKTTPPVLDSDGSFFLVSKLTVDKSRWQQGNVFSCSVMHEALHNHYTQKSLSLSPGK | 19 nM | 29.2 nM | 7.9 pM | 4.3 pM
